Experimental data reported in patent US20110206694A1 (UNIVERSITY OF TENNESSEE RESEARCH FOUNDATION, published 2011).

Target: labeled control protein (BSA) (UniProt P02769 25-607)
Test: membrane-immobilized flagellin bait, biotinylated prey, streptavidin-HRP

Sequence of labeled control protein (BSA) (P02769 25-607 limits assumed): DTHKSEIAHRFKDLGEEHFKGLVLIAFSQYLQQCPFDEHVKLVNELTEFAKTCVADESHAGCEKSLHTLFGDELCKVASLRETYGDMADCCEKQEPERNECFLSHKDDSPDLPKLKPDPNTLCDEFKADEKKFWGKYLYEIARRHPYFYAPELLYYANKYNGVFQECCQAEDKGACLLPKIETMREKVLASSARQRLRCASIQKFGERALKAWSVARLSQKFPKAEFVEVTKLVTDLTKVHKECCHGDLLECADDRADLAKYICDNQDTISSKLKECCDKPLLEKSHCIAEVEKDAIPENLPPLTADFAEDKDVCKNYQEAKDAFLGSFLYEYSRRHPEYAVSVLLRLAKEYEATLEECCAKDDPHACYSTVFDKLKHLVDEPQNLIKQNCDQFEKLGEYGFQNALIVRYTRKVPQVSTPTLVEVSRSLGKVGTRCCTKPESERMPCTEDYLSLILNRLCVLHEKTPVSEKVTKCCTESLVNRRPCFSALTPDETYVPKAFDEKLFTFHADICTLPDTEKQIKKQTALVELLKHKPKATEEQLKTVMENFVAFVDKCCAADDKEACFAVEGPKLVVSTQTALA

B1: flagellin FliC, serotype H48, of E. coli K-12 (MG1655) (other)
chain: AQVINTNSLSLITQNNINKNQSALSSSIERLSSGLRINSAKDDAAGQAIANRFTSNIKGLTQAARNANDGISVAQTTEGALSEINNNLQRVRELTVQATTGTNSESDLSSIQDEIKSRLDEIDRVSGQTQFNGVNVLAKNGSMKIQVGANDNQTITIDLKQIDAKTLGLDGFSVKNNDTVTTSAPVTAFGATTTNNIKLTGITLSTEAATDTGGTNPASIEGVYTDNGNDYYAKITGGDNDGKYYAVTVANDGTVTMATGATANATVTDANTTKATTITSGGTPVQIDNTAGSATANLGAVSLVKLQDSKGNDTDTYALKDTNGNLYAADVNETTGAVSVKTITYTDSSGAASSPTAVKLGGDDGKTEVVDIDGKTYDSADLNGGNLQTGLTAGGEALTAVANGKTTDPLKALDDAIASVDKFRSSLGAVQNRLDSAVTNLNNTTTNLSEAQSRIQDADYATEVSNMSKAQIIQQAGNSVLAKANQVPQQVLSLLQG
notes: also called FliCH48; FliC (H48)
Q: Does B1 bind?
A: no binding (tested: 10 µg/ml)
